The values that follow come from the Human Domainome abundance scans (Beltran et al. 2025).

First the molecules themselves.
B1: Homeobox protein cut-like 1, residues 941 to 1008; numbered along this chain, P39880 (parent)
chain: QEVDTIELTRQVKEKLAKNGICQRIFGEKVLGLSQGSVSDMLSRPKPWSKLTQKGREPFIRMQLWLNG
B2: Protein maelstrom homolog, residues 3 to 71; numbered along this chain, Q96JY0 (parent)
chain: NRKASRNAYYFFVQEKIPELRRRGLPVARVADAIPYCSSDWALLREEEKEKYAEMAREWRAAQGKDPGP

± gives the uncertainty stated by the source.

One data set covers variants of B1. Put plainly: abundance fitness (aPCA) (normalised: wild type 0, dead -1); higher = more abundant; growth selection in yeast, the domain comes from the species named. The conditions noted are these: Homo sapiens.
Turning to QEVDTIELTRQVKEKLAKNGICQRIFGEKVLGLSQGSVSDMLSRPKPWSKLTQKGREPFIRMQLWLNW [G68W], the abundance fitness is -0.624 ± 0.091.

In the next data set the parent is B2. Described as above. The following applies: Homo sapiens.
As for NVKASRNAYYFFVQEKIPELRRRGLPVARVADAIPYCSSDWALLREEEKEKYAEMAREWRAAQGKDPGP [R2V], the abundance fitness was -0.288 ± 0.071. As to NTKASRNAYYFFVQEKIPELRRRGLPVARVADAIPYCSSDWALLREEEKEKYAEMAREWRAAQGKDPGP [R2T], the abundance fitness amounted to 0.126 ± 0.066. Still for that read-out and setting: then NAKASRNAYYFFVQEKIPELRRRGLPVARVADAIPYCSSDWALLREEEKEKYAEMAREWRAAQGKDPGP [R2A], with -0.407 ± 0.085; and NHKASRNAYYFFVQEKIPELRRRGLPVARVADAIPYCSSDWALLREEEKEKYAEMAREWRAAQGKDPGP [R2H], with 0.058 ± 0.1; and NEKASRNAYYFFVQEKIPELRRRGLPVARVADAIPYCSSDWALLREEEKEKYAEMAREWRAAQGKDPGP [R2E], with 0.124 ± 0.078. Same read-out and setting: to NPKASRNAYYFFVQEKIPELRRRGLPVARVADAIPYCSSDWALLREEEKEKYAEMAREWRAAQGKDPGP [R2P] belongs 0.06 ± 0.085. Same read-out and setting: to NCKASRNAYYFFVQEKIPELRRRGLPVARVADAIPYCSSDWALLREEEKEKYAEMAREWRAAQGKDPGP [R2C] belongs 0.123 ± 0.09; to NLKASRNAYYFFVQEKIPELRRRGLPVARVADAIPYCSSDWALLREEEKEKYAEMAREWRAAQGKDPGP [R2L], -0.013 ± 0.045; to NDKASRNAYYFFVQEKIPELRRRGLPVARVADAIPYCSSDWALLREEEKEKYAEMAREWRAAQGKDPGP [R2D], 0.122 ± 0.1. As for NGKASRNAYYFFVQEKIPELRRRGLPVARVADAIPYCSSDWALLREEEKEKYAEMAREWRAAQGKDPGP [R2G], the abundance fitness came out at 0.021 ± 0.054. With NMKASRNAYYFFVQEKIPELRRRGLPVARVADAIPYCSSDWALLREEEKEKYAEMAREWRAAQGKDPGP [R2M], the abundance fitness was 0.093 ± 0.067. On the same count and under the same terms, to NIKASRNAYYFFVQEKIPELRRRGLPVARVADAIPYCSSDWALLREEEKEKYAEMAREWRAAQGKDPGP [R2I] belongs 0.162 ± 0.075; to NKKASRNAYYFFVQEKIPELRRRGLPVARVADAIPYCSSDWALLREEEKEKYAEMAREWRAAQGKDPGP [R2K], 0.045 ± 0.09; to NSKASRNAYYFFVQEKIPELRRRGLPVARVADAIPYCSSDWALLREEEKEKYAEMAREWRAAQGKDPGP [R2S], 0.091 ± 0.032.

Turning to NFKASRNAYYFFVQEKIPELRRRGLPVARVADAIPYCSSDWALLREEEKEKYAEMAREWRAAQGKDPGP [R2F], the abundance fitness was -0.095 ± 0.16. The same measure, in the same setting: then NNKASRNAYYFFVQEKIPELRRRGLPVARVADAIPYCSSDWALLREEEKEKYAEMAREWRAAQGKDPGP [R2N], with -0.2 ± 0.12; and NYKASRNAYYFFVQEKIPELRRRGLPVARVADAIPYCSSDWALLREEEKEKYAEMAREWRAAQGKDPGP [R2Y], with 0.078 ± 0.12. As for NWKASRNAYYFFVQEKIPELRRRGLPVARVADAIPYCSSDWALLREEEKEKYAEMAREWRAAQGKDPGP [R2W], the abundance fitness is -0.141 ± 0.058. On the same count and under the same terms, then NRNASRNAYYFFVQEKIPELRRRGLPVARVADAIPYCSSDWALLREEEKEKYAEMAREWRAAQGKDPGP [K3N], with -0.001 ± 0.19. The same measure, in the same setting: then NRKACRNAYYFFVQEKIPELRRRGLPVARVADAIPYCSSDWALLREEEKEKYAEMAREWRAAQGKDPGP [S5C], with -0.655 ± 0.34; and NRKAPRNAYYFFVQEKIPELRRRGLPVARVADAIPYCSSDWALLREEEKEKYAEMAREWRAAQGKDPGP [S5P], with -0.24 ± 0.16.

As to NRKAGRNAYYFFVQEKIPELRRRGLPVARVADAIPYCSSDWALLREEEKEKYAEMAREWRAAQGKDPGP [S5G], the abundance fitness was -0.03 ± 0.084. On the same count and under the same terms, then NRKADRNAYYFFVQEKIPELRRRGLPVARVADAIPYCSSDWALLREEEKEKYAEMAREWRAAQGKDPGP [S5D], with 0.12 ± 0.17. NRKARRNAYYFFVQEKIPELRRRGLPVARVADAIPYCSSDWALLREEEKEKYAEMAREWRAAQGKDPGP [S5R]: the abundance fitness was -0.228 ± 0.11.

NRKAKRNAYYFFVQEKIPELRRRGLPVARVADAIPYCSSDWALLREEEKEKYAEMAREWRAAQGKDPGP [S5K]: the abundance fitness is -0.206 ± 0.28. On the same count and under the same terms, to NRKAVRNAYYFFVQEKIPELRRRGLPVARVADAIPYCSSDWALLREEEKEKYAEMAREWRAAQGKDPGP [S5V] belongs -0.087 ± 0.1. The same measure, in the same setting: then NRKAIRNAYYFFVQEKIPELRRRGLPVARVADAIPYCSSDWALLREEEKEKYAEMAREWRAAQGKDPGP [S5I], with 0.278 ± 0.32; and NRKAYRNAYYFFVQEKIPELRRRGLPVARVADAIPYCSSDWALLREEEKEKYAEMAREWRAAQGKDPGP [S5Y], with -0.36 ± 0.28; and NRKAMRNAYYFFVQEKIPELRRRGLPVARVADAIPYCSSDWALLREEEKEKYAEMAREWRAAQGKDPGP [S5M], with -0.118 ± 0.18. With NRKALRNAYYFFVQEKIPELRRRGLPVARVADAIPYCSSDWALLREEEKEKYAEMAREWRAAQGKDPGP [S5L], the abundance fitness is -0.593 ± 0.3. Take NRKAARNAYYFFVQEKIPELRRRGLPVARVADAIPYCSSDWALLREEEKEKYAEMAREWRAAQGKDPGP [S5A]: the abundance fitness came out at 0.013 ± 0.12. On the same count and under the same terms, then NRKATRNAYYFFVQEKIPELRRRGLPVARVADAIPYCSSDWALLREEEKEKYAEMAREWRAAQGKDPGP [S5T], with -0.202 ± 0.13.

Consider NRKAERNAYYFFVQEKIPELRRRGLPVARVADAIPYCSSDWALLREEEKEKYAEMAREWRAAQGKDPGP [S5E], for which the abundance fitness was determined as 0.137 ± 0.34. For the variant NRKAQRNAYYFFVQEKIPELRRRGLPVARVADAIPYCSSDWALLREEEKEKYAEMAREWRAAQGKDPGP [S5Q], the abundance fitness is -0.088 ± 0.15. On to NRKKSRNAYYFFVQEKIPELRRRGLPVARVADAIPYCSSDWALLREEEKEKYAEMAREWRAAQGKDPGP [A4K], for which the abundance fitness was -0.095 ± 0.13.

Regarding NRKCSRNAYYFFVQEKIPELRRRGLPVARVADAIPYCSSDWALLREEEKEKYAEMAREWRAAQGKDPGP [A4C], the abundance fitness is -0.395 ± 0.15. In the case of NRKMSRNAYYFFVQEKIPELRRRGLPVARVADAIPYCSSDWALLREEEKEKYAEMAREWRAAQGKDPGP [A4M], the abundance fitness was -0.011 ± 0.13. For NRKPSRNAYYFFVQEKIPELRRRGLPVARVADAIPYCSSDWALLREEEKEKYAEMAREWRAAQGKDPGP [A4P], the abundance fitness was -0.246 ± 0.072.
